Assay results as given in patent US20100048412A1.

Target: R19-Ava-…-NH2 (2)
Experiment: cell-based or functional assay

Work on “prostate-specific antigen (PSA), proteolytically active (from UniProt P07288 25-261) (enzyme)” yielded a suppression of peptide digestion by 420 nM PSA after addition of the protease inhibitor mix (AEBSF, Aprotinin, Elastatinal, GGACK) greater than 90%.
